Measured values as given in paper PMC10041115, “Cryo-EM structure of the four-subunit Rhodobacter sphaeroides cytochrome bc1 complex in styrene maleic acid nanodiscs” (Proceedings of the National Academy of Sciences of the …, 2023).

Experiments:
[1] = molecular target: T1, four-subunit cytochrome bc1 complex (WT) in SMA nanodiscs (Cereibacter sphaeroides, UniProt Q02761+Q02762); assay: cryo-EM structure, […] Å; type: binding; settings: natively bound, co-purified; Qo site of one cyt b; isoprene tail truncated in model; redox state not determined; H-bond to Rieske His152
T1 construct: gene petB; native purification from photosynthetically grown cells, SMA lipid nanodisc, His10 tag on cyt c1, dimer; SIV 124 residues, 79-107 resolved; with Cytochrome c1; Ubiquinol-cytochrome c reductase subunit IV

[2] = molecular target: T2, cytochrome b subunit of the Rhodobacter sphaeroides cytochrome bc1 complex (Rhodobacter sphaeroides, UniProt Q02761 1-445); assay: cryo-EM structure; settings: both partners purified
T2 construct: also called cyt b; source: endogenous, R. sphaeroides grown photosynthetically; SMA-solubilised membranes, purified in native nanodiscs (Ni-NTA, sucrose gradient, SEC)
T2 sequence (looked up): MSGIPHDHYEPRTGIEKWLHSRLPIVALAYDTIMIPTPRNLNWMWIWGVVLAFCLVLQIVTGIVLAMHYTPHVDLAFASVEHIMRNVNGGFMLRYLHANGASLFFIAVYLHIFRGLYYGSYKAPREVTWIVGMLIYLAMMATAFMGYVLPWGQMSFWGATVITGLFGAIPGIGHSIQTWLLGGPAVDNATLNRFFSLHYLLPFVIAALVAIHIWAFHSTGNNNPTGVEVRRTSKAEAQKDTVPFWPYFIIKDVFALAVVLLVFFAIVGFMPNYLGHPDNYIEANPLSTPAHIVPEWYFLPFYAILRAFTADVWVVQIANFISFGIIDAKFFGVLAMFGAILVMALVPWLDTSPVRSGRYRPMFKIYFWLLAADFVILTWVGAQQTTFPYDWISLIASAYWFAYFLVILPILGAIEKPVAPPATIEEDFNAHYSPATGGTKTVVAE

[3] = molecular target: the molecule itself; assay: cryo-EM structure; purified four-subunit cyt bc1 in SMA native lipid nanodiscs, no inhibitors added, 20 mM Tris-HCl pH 8, 200 mM NaCl; C1 consensus map at 2.9 Å and a focused class at 3.75 Å (FSC 0.5)

## COC1=C(OC)C(=O)C(C/C=C(\C)CC/C=C(\C)CC/C=C(\C)CC/C=C(\C)CC/C=C(\C)CC/C=C(\C)CC/C=C(\C)CC/C=C(\C)CC/C=C(\C)CCC=C(C)C)=C(C)C1=O [U10, ubiquinone-10]
[1]
  cryo-EM structure, 2.9 Å: a ubiquinone-10 molecule bound in the Qo site of one of the cyt b subunits

B1: Rieske iron-sulfur protein subunit of the Rhodobacter sphaeroides cytochrome bc1 complex (natural protein, UniProt Q02762 1-187, looked up)
chain: MSNAEDHAGTRRDFLYYATAGAGAVATGAAVWPLINQMNPSADVQALASIFVDVSSVEPGVQLTVKFLGKPIFIRRRTEADIELGRSVQLGQLVDTNARNANIDAGAEATDQNRTLDEAGEWLVMWGVCTHLGCVPIGGVSGDFGGWFCPCHGSHYDSAGRIRKGPAPENLPIPLAKFIDETTIQLG
notes: also called Rieske subunit; Rieske ISP; source: endogenous, R. sphaeroides grown photosynthetically; SMA-solubilised membranes, purified in native nanodiscs (Ni-NTA, sucrose gradient, SEC)
[2]
  binding result: binds

B2: four-subunit Rhodobacter sphaeroides cytochrome bc1 complex (one monomer of the dimeric complex: cyt b, cyt c1, Rieske subunit, SIV) (complex)
chain 1: T2 sequence (looked up)
chain 2: AGGGHVEDVPFSFEGPFGTFDQHQLQRGLQVYTEVCAACHGMKFVPIRSLSEPGGPELPEDQVRAYATQFTVTDEETGEDREGKPTDHFPHSALENAADLSLMAKARAGFHGPMGTGISQLFNGIGGPEYIYSVLTGFPEEPPKCAEGHEPDGFYYNRAFQNGSVPDTCKDANGVKTTAGSWIAMPPPLMDDLVEYADGHDASVHAMAEDVSAFLMWAAEPKLMARKQAGFTAVMFLTVLSVLLYLTNKRLWAGVKGKKKTNV
chain 3: B1 chain
chain 4: MFSFIDDIPSFEQIKARVRDDLRKHGWEKRWNDSRLVQKSRELLNDEELKIDPATWIWKRMPSREEVAARRQRDFETVWKYRYRLGGFASGALLALALAGIFSTGNFGGSSDAGNRPSVVYPIE
notes: also called cyt bc1; cyt bc1-nanodisc complex
[3]
  stoichiometry N: 2
